Laboratory results as given in PMC12808100, “The non-catalytic DNA polymerase ε subunit is an NPF motif recognition protein” (Nature Communications, 2025).

B1: HA-WDHD1, full length, intact NPF motif, O75717 NPF to KAF (protein)
chain: MPATRKPMRYGHTEGHTEVCFDDSGSFIVTCGSDGDVRIWEDLDDDDPKFINVGEKAYSCALKSGKLVTAVSNNTIQVHTFPEGVPDGILTRFTTNANHVVFNGDGTKIAAGSSDFLVKIVDVMDSSQQKTFRGHDAPVLSLSFDPKDIFLASASCDGSVRVWQISDQTCAISWPLLQKCNDVINAKSICRLAWQPKSGKLLAIPVEKSVKLYRRESWSHQFDLSDNFISQTLNIVTWSPCGQYLAAGSINGLIIVWNVETKDCMERVKHEKGYAICGLAWHPTCGRISYTDAEGNLGLLENVCDPSGKTSSSKVSSRVEKDYNDLFDGDDMSNAGDFLNDNAVEIPSFSKGIINDDEDDEDLMMASGRPRQRSHILEDDENSVDISMLKTGSSLLKEEEEDGQEGSIHNLPLVTSQRPFYDGPMPTPRQKPFQSGSTPLHLTHRFMVWNSIGIIRCYNDEQDNAIDVEFHDTSIHHATHLSNTLNYTIADLSHEAILLACESTDELASKLHCLHFSSWDSSKEWIIDLPQNEDIEAICLGQGWAAAATSALLLRLFTIGGVQKEVFSLAGPVVSMAGHGEQLFIVYHRGTGFDGDQCLGVQLLELGKKKKQILHGDPLPLTRKSYLAWIGFSAEGTPCYVDSEGIVRMLNRGLGNTWTPICNTREHCKGKSDHYWVVGIHENPQQLRCIPCKGSRFPPTLPRPAVAILSFKLPYCQIATEKGQMEEQFWRSVIFHNHLDYLAKNGYEYEESTKNQATKEQQELLMKMLALSCKLEREFRCVELADLMTQNAVNLAIKYASRSRKLILAQKLSELAVEKAAELTATQVEEEEEEEDFRKKLNAGYSNTATEWSQPRFRNQVEEDAEDSGEADDEEKPEIHKPGQNSFSKSTNSSDVSAKSGAVTFSSQGRVKAFKVSASSKEPAMSMNSARSTNILDNMGKSSKKSTALSRTTNNEKSPIIKPLIPKPKPKQASAASYFQKRNSQTNKTEEVKEENLKNVLSETPAICPPQNTENQRPKTGFQMWLEENRSNILSDNPDFSDEADIIKEGMIRFRVLSTEERKVWANKAKGETASEGTEAKKRKRVVDESDETENQEEKAKENLNLSKKQKPLDFSTNQKLSAFAFKQE
B2: HA-TTF2, full length, intact NPF motifs, Q9UNY4 NPF to KAF (protein)
chain: MEEVRCPEHGTFCFLKTGVRDGPNKGKSFYVCRADTCSFVRATDIPVSHCLLHEDFVVELQGLLLPQDKKEYRLFFRCIRSKAEGKRWCGSIPWQDPDSKEHSVSNKSQHASETFHHSSNWLRKAFKVLDKNQEPALWKQLIKGEGEEKKADKKQREKGDQLFDQKKEQKPEMMEKDLSSGLVPKKKQSVVQEKKQEEGAEIQCEAETGGTHKRDFSEIKSQQCQGNELTRPSASSQEKSSGKSQDVQRESEPLREKVTQLLPQNVHSHNSISKPQKGGPLNKEYTNWEAKETKAKDGPSIQATQKSLPQGHFQERPETHSVPAPGGPAAQAAPAAPGLSLGEGREAATSSDDEEEDDVVFVSSKPGSPLLFDSTLDLETKENLQFPDRSVQRKVSPASGVSKKVEPSDPVARRVYLTTQLKQKKSTLASVNIQALPDKGQKLIKQIQELEEVLSGLTLSPEQGTNEKSNSQVPQQSHFTKTTTGPPHLVPPQPLPRRGTQPVGSLELKSACQVTAGGSSQCYRGHTNQDHVHAVWKITSEAIGQLHRSLESCPGETVVAEDPAGLKVPLLLHQKQALAWLLWRESQKPQGGILADDMGLGKTLTMIALILTQKNQEKKEEKEKSTALTWLSKDDSCDFTSHGTLIICPASLIHHWKNEVEKRVNSNKLRVYLYHGPNRDSRARVLSTYDIVITTYSLVAKEIPTNKQEAEIPGANLNVEGTSTPLLRIAWARIILDEAHNVKNPRVQTSIAVCKLQACARWAVTGTPIQNNLLDMYSLLKFLRCSPFDEFNLWRSQVDNGSKKGGERLSILTKSLLLRRTKDQLDSTGRPLVILPQRKFQLHHLKLSEDEETVYNVFFARSRSALQSYLKRHESRGNQSGRSPNNPFSRVALEFGSEEPRHSEAADSPRSSTVHILSQLLRLRQCCCHLSLLKSALDPMELKGEGLVLSLEEQLSALTLSELRDSEPSSTVSLNGTFFKMELFEGMRESTKISSLLAELEAIQRNSASQKSVIVSQWTNMLKVVALHLKKHGLTYATIDGSVNPKQRMDLVEAFNHSRGPQVMLISLLAGGVGLNLTGGNHLFLLDMHWNPSLEDQACDRIYRVGQQKDVVIHRFVCEGTVEEKILQLQEKKKDLAKQVLSGSGESVTKLTLADLRVLFGI
B3: HA-ERCC6L, full length, intact NPF motif, Q2NKX8 NPF to KAF (protein)
chain: MEASRRFPEAEALSPEQAAHYLRYVKEAKEATKNGDLEEAFKLFNLAKDIFPNEKVLSRIQKIQEALEELAEQGDDEFTDVCNSGLLLYRELHNQLFEHQKEGIAFLYSLYRDGRKGGILADDMGLGKTVQIIAFLSGMFDASLVNHVLLIMPTNLINTWVKEFIKWTPGMRVKTFHGPSKDERTRNLNRIQQRNGVIITTYQMLINNWQQLSSFRGQEFVWDYVILDEAHKIKTSSTKSAICARAIPASNRLLLTGTPIQNNLQELWSLFDFACQGSLLGTLKTFKMEYENPITRAREKDATPGEKALGFKISENLMAIIKPYFLRRTKEDVQKKKSSNPEARLNEKNPDVDAICEMPSLSRKNDLIIWIRLVPLQEEIYRKFVSLDHIKELLMETRSPLAELGVLKKLCDHPRLLSARACCLLNLGTFSAQDGNEGEDSPDVDHIDQVTDDTLMEESGKMIFLMDLLKRLRDEGHQTLVFSQSRQILNIIERLLKNRHFKTLRIDGTVTHLLEREKRINLFQQNKDYSVFLLTTQVGGVGLTLTAATRVVIFDPSWNPATDAQAVDRVYRIGQKENVVVYRLITCGTVEEKIYRRQVFKDSLIRQTTGEKKNPFRYFSKQELRELFTIEDLQNSVTQLQLQSLHAAQRKSDIKLDEHIAYLQSLGIAGISDHDLMYTCDLSVKEELDVVEESHYIQQRVQKAQFLVEFESQNKEFLMEQQRTRNEGAWLREPVFPSSTKKKCPKLNKPQPQPSPLLSTHHTQEEDISSKMASVVIDDLPKEGEKQDLSSIKVNVTTLQDGKGTGSADSIATLPKGFGSVEELCTNSSLGMEKSFATKNEAVQKETLQEGPKQEALQEDPLESFNYVLSKSTKADIGPNLDQLKDDEILRHCNPWPIISITNESQNAESNVSIIEIADDLSASHSALQDAQASEAKLEEEPSASSPQYACDFNLFLEDSADNRQNFSSQSLEHVEKENSLCGSAPNSRAGFVHSKTCLSWEFSEKDDEPEEVVVKAKIRSKARRIVSDGEDEDDSFKDTSSIKAFNTSLFQFSSVKQFDASTPKNDISPPGRFFSSQIPSSVNKSMNSRRSLASRRSLINMVLDHVEDMEERLDDSSEAKGPEDYPEEGVEESSGEASKYTEEDPSGETLSSENKSSWLMTSKPSALAQETSLGAPEPLSGEQLVGSPQDKAAEATNDYETLVKRGKELKECGKIQEALNCLVKALDIKSADPEVMLLTLSLYKQLNNN
B4: EPS15 (natural protein)
chain: MAAAAQLSLTQLSSGNPVYEKYYRQVDTGNTGRVLASDAAAFLKKSGLPDLILGKIWDLADTDGKGILNKQEFFVALRLVACAQNGLEVSLSSLNLAVPPPRFHDTSSPLLISGTSAAELPWAVKPEDKAKYDAIFDSLSPVNGFLSGDKVKPVLLNSKLPVDILGRVWELSDIDHDGMLDRDEFAVAMFLVYCALEKEPVPMSLPPALVPPSKRKTWVVSPAEKAKYDEIFLKTDKDMDGFVSGLEVREIFLKTGLPSTLLAHIWSLCDTKDCGKLSKDQFALAFHLISQKLIKGIDPPHVLTPEMIPPSDRASLQKNIIGSSPVADFSAIKELDTLNNEIVDLQREKNNVEQDLKEKEDTIKQRTSEVQDLQDEVQRENTNLQKLQAQKQQVQELLDELDEQKAQLEEQLKEVRKKCAEEAQLISSLKAELTSQESQISTYEEELAKAREELSRLQQETAELEESVESGKAQLEPLQQHLQDSQQEISSMQMKLMEMKDLENHNSQLNWCSSPHSILVNGATDYCSLSTSSSETANLNEHVEGQSNLESEPIHQESPARSSPELLPSGVTDENEVTTAVTEKVCSELDNNRHSKEEDPFNVDSSSLTGPVADTNLDFFQSDPFVGSDPFKDDPFGKIDPFGGDPFKGSDPFASDCFFRQSTDPFATSSTDPFSAANNSSITSVETLKHNDPFAPGGTVVAASDSATDPFASVFGNESFGGGFADFSTLSKVNNEDPFRSATSSSVSNVVITKNVFEETSVKSEDEPPALPPKIGTPTRPCPLPPGKRSINKLDSPDPFKLNDPFQPFPGNDSPKEKDPEIFCDPFTSATTTTNKEADPSNFANFSAYPSEEDMIEWAKRESEREEEQRLARLNQQEQEDLELAIALSKSEISEA

Legend:
[1] = target: His6-AviTag-MBP-TEV-POLE2, P56282; experiment: nHU titration, dot blot; details: chain shown with the change
His6-AviTag-MBP-TEV-POLE2, P56282, sequence (P56282 whole entry): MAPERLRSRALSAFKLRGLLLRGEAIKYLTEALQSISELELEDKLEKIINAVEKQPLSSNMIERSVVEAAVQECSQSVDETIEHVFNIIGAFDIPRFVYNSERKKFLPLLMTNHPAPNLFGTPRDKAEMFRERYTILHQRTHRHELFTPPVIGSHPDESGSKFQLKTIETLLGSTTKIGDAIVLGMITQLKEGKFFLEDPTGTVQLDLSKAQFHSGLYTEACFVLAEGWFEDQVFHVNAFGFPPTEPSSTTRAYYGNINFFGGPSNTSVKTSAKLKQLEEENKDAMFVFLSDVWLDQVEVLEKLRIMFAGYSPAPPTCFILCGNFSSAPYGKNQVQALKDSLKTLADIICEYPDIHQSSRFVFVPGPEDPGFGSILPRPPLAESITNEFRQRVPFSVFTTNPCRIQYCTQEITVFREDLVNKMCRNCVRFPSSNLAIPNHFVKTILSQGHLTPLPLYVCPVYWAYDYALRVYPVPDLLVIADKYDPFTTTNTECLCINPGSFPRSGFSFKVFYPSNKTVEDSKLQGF

[2] = target: triple NPF motif peptide made from the DONSON sequence (human); experiment: native holdup (nHU) titration with western blot; biotinylated peptide bait on streptavidin resin, bait-saturated and control (biotin) resin mixed at various proportions; total Jurkat extract as analyte; 4 °C, 2 h; endogenous POLE and EPS15 left in the supernatant quantified by western blot; apparent dissociation constants

Row | Binder | Kd [1] [µM] | Kd [2] [µM]
1 | B1 | 32 | 
2 | B2 | 1.1 | 
3 | B3 | 23 | 
4 | B4 |  | 0.8
